In the RNAGym collection of RNA variant scans (doi:10.7554/elife.80360):

B1: CPEB3 Ribozyme (parent)
chain: GGGGGCCACAGCAGAAGCGUUCACGUCGCGGCCCCUGUCAGAUUCUGGUGAAUCUGCGAAUUCUGCUGU

Variants of: B1
Test: self-cleavage, relative activity (ratio to wild type); higher = more cleavage; co-transcriptional

Variant | self-cleavage
GGGGGCCACAGCAGAAGCGUUCACAGCGCGGCCCCUGUCAGAUUCUGGUGAAUCUGCGAAUUCUGCUGU [G25A U26G] | 0.148
GGGGGCCACAGCAGAAGCGUUCACAUCGCGGCCCCUGUCAGAUUCUGGUGAAUCUGCGAAUUCCGCUGU [G25A U64C] | 0.14
GGGGGCCACAGCAGAAGCGUUCACAUCGCGGCCCCUGUCAGAUUCUGGUGAAUCUGCGAAUUCGGCUGU [G25A U64G] | 0.185
GGGGGCCACAGCAGAAGCGUUCACAUCGCGGCCCCUGUCAGAUUCUGGUGAAUCUGCGAAUUCAGCUGU [G25A U64A] | 0.19
GGGGGCCACAGCAGAAGCGUUCACAUCGCGGCCCCUGUCAGAUUCUGGGGAAUCUGCGAAUUCUGCUGU [G25A U49G] | 0.207
GGGGGCCACAGCAGAAGCGUUCACAUCGCGGCCCCUGUCAGAUUCUGGCGAAUCUGCGAAUUCUGCUGU [G25A U49C] | 0.219
GGGGGCCACAGCAGAAGCGUUCACAUCGCGGCCCCUGUCAGAUUCUGGUGAAUCUGCGAAGUCUGCUGU [G25A U61G] | 0.219
GGGGGCCACAGCAGAAGCGUUCACAUCGCGGCCCCUGUCAGAUUCUGGUGAAUCUGCGAACUCUGCUGU [G25A U61C] | 0.247
GGGGGCCACAGCAGAAGCGUUCACCUCGCGGACCCUGUCAGAUUCUGGUGAAUCUGCGAAUUCUGCUGU [G25C C32A] | 0.147
GGGGGCCACAGCAGAAGCGUUCACCUCGCGGGCCCUGUCAGAUUCUGGUGAAUCUGCGAAUUCUGCUGU [G25C C32G] | 0.173
GGGGGCCACAGCAGAAGCGUUCACAUCGCGGCCCCUGUCAGAUUCUGGUGAAUCUGCGAAUUCUGCUCU [G25A G68C] | 0.195
GGGGGCCACAGCAGAAGCGUUCACAUCGCGGCCCCUGUCAGAUUCUGGUGAAUCUGCGAAUUCUGCUUU [G25A G68U] | 0.224
GGGGGCCACAGCAGAAGCGUUCACAUCGCGGCCCCUGUCAGAUUCUGGUGAAUCUGCGAAUUCUGCUAU [G25A G68A] | 0.222
GGGGGCCACAGCAGAAGCGUUCACAUCGCGGCCCCUGUCAGAUUCUAGUGAAUCUGCGAAUUCUGCUGU [G25A G47A] | 0.175
GGGGGCCACAGCAGAAGCGUUCACAUCGCGGCCCCUGUCAGAUUCUGGUGAAUCUGCGAAUUCUGCUGC [G25A U69C] | 0.36
GGGGGCCACAGCAGAAGCGUUCACAUCGCGGCCCCUGUCAGAUUCUGGUGAAUCUGCGAAUUCUGCUGA [G25A U69A] | 0.295
GGGGGCCACAGCAGAAGCGUUCACAUCGCGGCCCCUGUCAGAUUCUGGUGAAUCUGCGAAUUCUGCGGU [G25A U67G] | 0.266
GGGGGCCACAGCAGAAGCGUUCACAUCGCGGCCCCUGUCAGAUUCUGGUGAAUCUGCGAAUUCUGCCGU [G25A U67C] | 0.133
GGGGGCCACAGCAGAAGCGUUCACAUCGCGGCCCCUGUCACAUUCUGGUGAAUCUGCGAAUUCUGCUGU [G25A G41C] | 0.172
GGGGGCCACAGCAGAAGCGUUCACAUCGCGGCCCCUGUCAUAUUCUGGUGAAUCUGCGAAUUCUGCUGU [G25A G41U] | 0.197

Variant | self-cleavage
GGGGGCCACAGCAGAAGCGUUCACCUCGCGGCACCUGUCAGAUUCUGGUGAAUCUGCGAAUUCUGCUGU [G25C C33A] | 0.307
GGGGGCCACAGCAGAAGCGUUCACCUCGCGGCUCCUGUCAGAUUCUGGUGAAUCUGCGAAUUCUGCUGU [G25C C33U] | 0.258
GGGGGCCACAGCAGAAGCGUUCACAUCGCGACCCCUGUCAGAUUCUGGUGAAUCUGCGAAUUCUGCUGU [G25A G31A] | 0.219
GGGGGCCACAGCAGAAGCGUUCACAUCGCGUCCCCUGUCAGAUUCUGGUGAAUCUGCGAAUUCUGCUGU [G25A G31U] | 0.197
GGGGGCCACAGCAGAAGCGUUCACAUCGCGCCCCCUGUCAGAUUCUGGUGAAUCUGCGAAUUCUGCUGU [G25A G31C] | 0.147
GGGGGCCACAGCAGAAGCGUUCACCUCGCGGCCCCUGUCCGAUUCUGGUGAAUCUGCGAAUUCUGCUGU [G25C A40C] | 0.173
GGGGGCCACAGCAGAAGCGUUCACCUCGCGGCCCCUGUCUGAUUCUGGUGAAUCUGCGAAUUCUGCUGU [G25C A40U] | 0.176
GGGGGCCACAGCAGAAGCGUUCACCUCGCGGCCCCUGUCGGAUUCUGGUGAAUCUGCGAAUUCUGCUGU [G25C A40G] | 0.158
GGGGGCCACAGCAGAAGCGUUCACCUCGUGGCCCCUGUCAGAUUCUGGUGAAUCUGCGAAUUCUGCUGU [G25C C29U] | 0.126
GGGGGCCACAGCAGAAGCGUUCACCUCGGGGCCCCUGUCAGAUUCUGGUGAAUCUGCGAAUUCUGCUGU [G25C C29G] | 0.148
GGGGGCCACAGCAGAAGCGUUCACAUCGCGGCCCCUGUCAGAUUCUGGUGAAUCUGCAAAUUCUGCUGU [G25A G58A] | 0.22
GGGGGCCACAGCAGAAGCGUUCACAUCGCGGCCCCUGUCAGAUUCUGGUGAAUCUGCCAAUUCUGCUGU [G25A G58C] | 0.159
GGGGGCCACAGCAGAAGCGUUCACAUCGCGGCCCCUGUCAGAUUCUGGUGAAUCUGCUAAUUCUGCUGU [G25A G58U] | 0.218
GGGGGCCACAGCAGAAGCGUUCACCUUGCGGCCCCUGUCAGAUUCUGGUGAAUCUGCGAAUUCUGCUGU [G25C C27U] | 0.172
GGGGGCCACAGCAGAAGCGUUCACCUGGCGGCCCCUGUCAGAUUCUGGUGAAUCUGCGAAUUCUGCUGU [G25C C27G] | 0.225
GGGGGCCACAGCAGAAGCGUUCACAUCGCGGCCCCUGUCAGAUUCAGGUGAAUCUGCGAAUUCUGCUGU [G25A U46A] | 0.267
GGGGGCCACAGCAGAAGCGUUCACAUCGCGGCCCCUGUCAGAUUCCGGUGAAUCUGCGAAUUCUGCUGU [G25A U46C] | 0.216
GGGGGCCACAGCAGAAGCGUUCACCUCGCGGCCCCUGUCAGAUUCUGGUGGAUCUGCGAAUUCUGCUGU [G25C A51G] | 0.203
GGGGGCCACAGCAGAAGCGUUCACCUCGCGGCCCCUGUCAGAUUCUGGUGCAUCUGCGAAUUCUGCUGU [G25C A51C] | 0.227
